± gives the uncertainty stated by the source.
Assay: self-splicing fitness, log relative to wild type (ln ratio); higher = more splicing; Tetrahymena group I intron in knt gene, E. coli kanamycin selection, DiMSum; sequences stand for … in CUCUCU…GGAGGGAAAAGUUAUCAGGCAUGCACCUGGUAGCUAGUCUUUAAACCAAUAGAUUGCAUCGGUUUAAAAGGCAAGACCGUCAAAUUGCGGGAAAGGGGUCAACAGCCGUUCAGUACCAAGUCUCAGGGGAAACUUUGAGAUGGCCUUGCAAAGGGUAUGGUAAUAAGCUGACGGACAUGGUCCUAACCACGCAGCCAAGUCCUAAGUCAACAGAUCUUCUGUUGAUAUGGAUGCAGUUCACAGACUAAAUGUCGGUCGGGGAAGAUGUAUUCUUCUCAUAAGAUAUAGUCGGACCUCUCCUUAAUGGGAGCUAGCGGAUGAAGUGAUGCAACACUGGAGCCGCUGGGAACUAAUUUGUAUGCGAAAGUAUAUUGAUUAGUUUUGGAGUACUCGUGGUCG
Outline: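 The eight P1ex-region nucleotides of an intron in the knt kanamycin-resistance gene on pET-22b(+) were all randomised and the library put into E. coli BL21(DE3). Six replicate transformations were grown overnight at 37°C or 30°C on LB agar with or without 25 μg/mL kanamycin, together with 100 μg/mL carbenicillin, 50 μM IPTG and 0.2% rhamnose. Colonies were pooled and amplicon-sequenced on an Illumina HiSeq 2500. Fitness from DiMSum is the error-weighted combination of wild-type-normalised replicate fold changes, kanamycin over none.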

Sequence | self-splicing fitness (ln) (30 °C) | self-splicing fitness (ln) (37 °C)
UAGAAGCAAUAUUACGGUUC | -3.98 ± 0.25 | -2.31 ± 0.19
GAGAAGCAAUAUUACGGAUA | -2.16 ± 0.2 | -0.942 ± 0.21
GCUAAGCAAUAUUACGGUCC | -1.4 ± 0.22 | -0.541 ± 0.3
AAGUAGCAAUAUUACGGUUC | -2.75 ± 0.19 | -2.08 ± 0.23
AGACAGCAAUAUUACGAACG | -1.29 ± 0.1 | -0.106 ± 0.12
ACCUAGCAAUAUUACGAGAA | -2.97 ± 0.35 | -2.29 ± 0.31
UGGAAGCAAUAUUACGGGGC | -3.24 ± 0.44 | -1.35 ± 0.26
UCGCAGCAAUAUUACGUCAA | -2.69 ± 0.15 | -0.094 ± 0.11
UCAAAGCAAUAUUACGAAUU | -3.32 ± 0.25 | -1.65 ± 0.16
CCCGAGCAAUAUUACGCUCA | -2.87 ± 0.32 | -2.7 ± 0.36
UUGAAGCAAUAUUACGUAAA | -1.42 ± 0.062 | -0.368 ± 0.081
UCGCAGCAAUAUUACGUGGA | -1.93 ± 0.11 | -1.57 ± 0.084
CAGCAGCAAUAUUACGGUUC | -2.92 ± 0.26 | -1.5 ± 0.17
GUCCAGCAAUAUUACGAGAC | -3.46 ± 0.23 | -1.82 ± 0.23
GCGCAGCAAUAUUACGCAAA | -1.8 ± 0.087 | -0.777 ± 0.078
GACCAGCAAUAUUACGACAA | -0.854 ± 0.099 | -0.621 ± 0.13
UGCCAGCAAUAUUACGGACG | -0.337 ± 0.06 | -0.0244 ± 0.076
GAUCAGCAAUAUUACGGAAG | -2.38 ± 0.1 | -0.761 ± 0.091
AGUGAGCAAUAUUACGUUUC | -3.41 ± 0.23 | -3.56 ± 0.32
UUCUAGCAAUAUUACGGGCG | -0.382 ± 0.12 | -0.891 ± 0.12
CGUCAGCAAUAUUACGUCAG | -0.465 ± 0.069 | 0.175 ± 0.083

Sequence | self-splicing fitness (ln) (30 °C) | self-splicing fitness (ln) (37 °C)
CGCUAGCAAUAUUACGUUUC | -2.78 ± 0.17 | -2.23 ± 0.22
GCCUAGCAAUAUUACGUACC | -1.18 ± 0.099 | -0.205 ± 0.12
AAAUAGCAAUAUUACGCAAC | -3.16 ± 0.37 | -1.53 ± 0.26
AUGGAGCAAUAUUACGGGCG | -3.21 ± 0.26 | -2.63 ± 0.44
CCACAGCAAUAUUACGAGCA | -3.6 ± 0.18 | -2.89 ± 0.19
GAUCAGCAAUAUUACGUAGA | -0.569 ± 0.08 | -0.158 ± 0.14
CCCCAGCAAUAUUACGACUG | -3.32 ± 0.11 | -2.97 ± 0.17
GGGCAGCAAUAUUACGGAAA | -2.77 ± 0.21 | -2.26 ± 0.19
UGACAGCAAUAUUACGGGGG | -2.61 ± 0.19 | -2.93 ± 0.2
AGGCAGCAAUAUUACGCUUA | -0.31 ± 0.1 | -0.299 ± 0.099
CGGGAGCAAUAUUACGGUAC | -2.19 ± 0.38 | –
UACGAGCAAUAUUACGUAGU | -3.39 ± 0.32 | -2.95 ± 0.33
GCCGAGCAAUAUUACGGUGU | -2.57 ± 0.11 | -0.986 ± 0.11
AGUGAGCAAUAUUACGCGUC | -1.51 ± 0.3 | -2.62 ± 0.45
UGAAAGCAAUAUUACGUCGG | -1.12 ± 0.065 | -0.446 ± 0.082
AUUGAGCAAUAUUACGAGUU | -2.58 ± 0.14 | -2.23 ± 0.17
GCCCAGCAAUAUUACGACGA | -1.31 ± 0.15 | -0.475 ± 0.15
AUAAAGCAAUAUUACGCCAA | -0.625 ± 0.15 | -0.34 ± 0.17
CCCAAGCAAUAUUACGUAAA | -4.05 ± 0.33 | -3.46 ± 0.39
GUCAAGCAAUAUUACGGUGG | -4.45 ± 0.15 | -3.19 ± 0.17
UUGAAGCAAUAUUACGCUCA | -0.439 ± 0.12 | 1.17 ± 0.19
